Laboratory results: patent US9371393B2, “Class I anti-CEA antibodies and uses thereof” (Immunomedics, Inc., priority 2009, dated 2016)

Assays:
[1] = tested on: MCF-7 adhesion to fibronectin; assay: Adhesion to extracellular matrix proteins assay, MCF-7; format: cell-based, human
Procedure: (§1) Adhesion to extracellular matrix proteins assay—The assay was done using the CYTOMATRIX™ screening kit from CHEMICON® (Kit #ECM205, Temecula, Calif.). The kit contains 96-well plates with strips coated with fibronectin, vitronectin, laminin, collagen-I, or collagen-IV. Subconfluent cell cultures were used for these studies. Cells (1×10^6 cells/mol) were seeded onto coated substrate and incubated at 37° C. for 1 hour in a CO2 incubator in PBS containing Ca^2+/Mg^2+ (200 μL per well). Adherent cells were fixed and stained. The plate was washed to remove unadhered cells and stained with 100 μL per well of MTS (Cell Titer Aq 96, PROMEGA®, Madison, Wis.) for 5 minutes at room temperature. Excess stain was removed with three PBS washes. Solubilization buffer [100 μL of a 50:50 mixture of 0.1 mol/L NaH2PO4 (pH 4.5) and 50% ethanol] was added to each well. Relative attachment was determined using absorbance readings (A540 nm-A570 nm).

[2] = tested on: MCA38cea (human CEA-transfected line) adhesion to HUVEC; assay: Endothelial cell adhesion assay, MCA38cea; format: cell-based, murine; details: without antibody 11.68±0.77%
Procedure: Percentage adhesion of various tumor cells with varying amounts of expressed CEACAM5 and CEACAM6 to HUVEC cells in the absence or presence of MN-15 Fab′, MN-3 Fab′, or Ag8 Fab′ control. Cells were labeled with 1 μCi/mL of ^3H-thymidine and added to HUVEC cultures and incubated for 30 minutes at 37° C. Samples were washed thrice with PBS to remove unattached cells. Attached tumor cells were solubilized with 0.1 N NaOH and radioactivity was measured in a B-scintillation counter. The cpm attached/total cpm added (attaching potential) was determined. Results of a typical study are presented. Cell lines used include BT-20 (CEACAM5+/CEACAM6+), MCF-7 (CEACAM5−/CEACAM6+), HT-29 (CEACAM5−/CEACAM6+), Moser (CEACAM5+/CEACAM6−), MCA38cea (CEACAM5+/CEACAM6−), and MCA38 (CEACAM5−/CEACAM6−).
Endothelial cell adhesion assay—Human umbilical vein endothelial cells (HUVEC; Cambrex, San Diego, Calif.) were grown in collagen-coated dishes in EGM Media in a humidified atmosphere with 5% CO2 at 37° C. At passages 2 to 5, cells were plated at a density of 4×10^4 cells per well in 96-well plates 24 hours before the assay. Interleukin-1β (IL-1β, 1 ng/mol) was added 4 hours before the assay. […] Attached cells were solubilized with 0.1 N NaOH and radioactivity was measured in a β scintillation counter. The cpm attached/total cpm added (attaching potential) was determined.

[3] = tested on: tumor cell adhesion to ECM proteins (fibronectin, vitronectin, laminin, collagen-I, collagen-IV); assay: Adhesion to extracellular matrix proteins assay, panel of six cell lines; format: cell-based, human
Procedure: as §1

[4] = tested on: CaPAN-1 cells; assay: Collagen-based invasion assay, CaPAN-1; format: cell-based, human; details: 10% FBS chemoattractant, 72-hour incubation
Procedure: Collagen-based invasion assay—The assay was done using CHEMICON® Kit (#ECM551, MILLIPORE®, Billerica, Mass.). Tumor cells at 80% confluence and were serum-starved for 18 to 24 hours before the assay was used. Cells were harvested with 5 mol of 2 mmol/L EDTA/PBS per 100-mm dish and incubated at 37° C. for 5 to 15 minutes. Cells were collected into 10 to 20 mol of quenching medium (serum-free DMEM containing 5% BSA) to inactivate trypsin/EDTA from the harvesting buffer. Cells were pelleted, resuspended in quenching medium (1×10^6 cells/mol), and appropriate antibody Fabs were added to individual cell aliquots. Cell invasion potential was determined as follows. Baseline invasion and invasion in the presence of a chemoattractant (10% FBS) were measured after a 72-hour incubation period at 37° C. in a 5% CO2 incubator. The bottom side of the collagen-coated polycarbonate membrane insert of the invasion chamber was placed in 400 μL of cell stain for 20 minutes at room temperature and washed. The dye was extracted and transferred into a 96-well microtiter plate for colorimetric measurements (A560 nm).

Molecule | decrease of adhesion to fibronectin [1] | endothelial cell binding [2] | effect on adhesion to fibronectin [3] | reduction in cell invasion [4]
MN-15: murine Class I anti-CEA MAb, IgG1 kappa, binds A1B1 domain of CEACAM5 and CEACAM6 (antibody, V domains shown) VL: DIQLTQSPAIMSASPGEKVTMTCSASSRVSYIHWYQQKSGTSPKRWIYGTSTLASGVPARFSGSGSGTSYSLTISSMEAEDAATYYCQQWSYNPPTFGAGTKLELKR VH: EVRLVESGGGLVQGPGSLRLSCAASGFALTDYYMSWVRQSPGKTLEWLGFIANKANGHTTDYSPSVKGRFTISRDNSQTILYLQMNTLRTEDSATYYCARDMGIRWNFDVWGQGTTVTVSS | 29% | – | – | –
MN-15 Fab′: monovalent Fab′ fragment of murine MN-15 (antibody, V domains shown) VL: DIQLTQSPAIMSASPGEKVTMTCSASSRVSYIHWYQQKSGTSPKRWIYGTSTLASGVPARFSGSGSGTSYSLTISSMEAEDAATYYCQQWSYNPPTFGAGTKLELKR VH: EVRLVESGGGLVQGPGSLRLSCAASGFALTDYYMSWVRQSPGKTLEWLGFIANKANGHTTDYSPSVKGRFTISRDNSQTILYLQMNTLRTEDSATYYCARDMGIRWNFDVWGQGTTVTVSS | – | 5.53±1.15% | induced a decrease in adhesion of three of six cell lines | 73%
